Laboratory results published in patent publication US20110045002A1 (BRIGHAM AND WOMEN S HOSPITAL, published 2011).

T1: Tim-4 on CHO or HEK293 transfectants (Tim-4-pDisplay construct, N-terminal HA tag, Tim-4 signal sequence … (mouse, UniProt Q6U7R4 30-343))
T1 construct: also called Tim-4 transfectants; CHO-Tim-4; not shown: N-terminal HA tag of the pDisplay vector
T1 sequence: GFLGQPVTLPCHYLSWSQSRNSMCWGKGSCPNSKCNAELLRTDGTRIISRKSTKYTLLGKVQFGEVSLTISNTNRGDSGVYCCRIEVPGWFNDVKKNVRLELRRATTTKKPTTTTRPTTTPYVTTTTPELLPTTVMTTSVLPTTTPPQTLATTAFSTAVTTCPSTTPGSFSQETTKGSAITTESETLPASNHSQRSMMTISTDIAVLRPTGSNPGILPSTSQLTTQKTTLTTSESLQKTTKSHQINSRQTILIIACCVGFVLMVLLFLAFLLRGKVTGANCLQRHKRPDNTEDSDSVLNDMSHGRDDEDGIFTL

T2: Tim-2 on CHO-Tim-2 transfectants (mouse, UniProt Q8R183 22-305)
T2 sequence: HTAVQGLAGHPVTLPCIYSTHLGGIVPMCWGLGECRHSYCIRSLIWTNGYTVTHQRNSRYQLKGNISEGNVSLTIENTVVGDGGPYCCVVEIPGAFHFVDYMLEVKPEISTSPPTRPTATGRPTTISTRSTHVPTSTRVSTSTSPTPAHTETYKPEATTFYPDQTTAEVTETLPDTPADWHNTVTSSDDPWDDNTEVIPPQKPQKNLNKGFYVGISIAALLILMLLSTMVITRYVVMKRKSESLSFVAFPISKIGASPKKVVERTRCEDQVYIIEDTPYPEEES

T3: Tim-1 on CHO-Tim-1 transfectants (CHO-K1 cells transfected with pEF6 containing murine Tim-1 cDNA) (murine, UniProt Q5QNS5 22-305)
T3 sequence: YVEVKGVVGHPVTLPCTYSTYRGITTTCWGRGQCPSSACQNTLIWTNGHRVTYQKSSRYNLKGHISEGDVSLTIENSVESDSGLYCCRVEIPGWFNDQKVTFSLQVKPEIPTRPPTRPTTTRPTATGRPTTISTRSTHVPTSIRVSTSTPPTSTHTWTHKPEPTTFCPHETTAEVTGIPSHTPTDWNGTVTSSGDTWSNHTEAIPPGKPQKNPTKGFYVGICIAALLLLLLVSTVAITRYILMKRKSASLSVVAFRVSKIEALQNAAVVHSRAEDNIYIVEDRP


Legend:
[1] = target: T1, Tim-4 on CHO or HEK293 transfectants …; assay: flow cytometry, cell surface staining of CHO transfectants
[2] = target: T2, Tim-2 on CHO-Tim-2 transfectants; assay: as above
[3] = target: T4, Tim-3 on CHO-Tim-3 transfectants (UniProt Q8VIM0 20-281, limits assumed); assay: as above
T4 construct: whole, on cells
T4 sequence (Q8VIM0 20-281 limits assumed): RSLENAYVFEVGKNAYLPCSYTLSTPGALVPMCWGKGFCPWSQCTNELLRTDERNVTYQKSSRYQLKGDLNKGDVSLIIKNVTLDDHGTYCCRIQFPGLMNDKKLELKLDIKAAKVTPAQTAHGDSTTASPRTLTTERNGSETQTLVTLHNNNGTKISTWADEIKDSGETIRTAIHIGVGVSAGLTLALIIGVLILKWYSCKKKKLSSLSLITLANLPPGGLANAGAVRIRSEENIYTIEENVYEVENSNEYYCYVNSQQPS

[4] = target: T1, Tim-4 on CHO or HEK293 transfectants …; assay: flow cytometry, cell surface staining of CHO transfectants (FIG. 14A)
[5] = target: T3, Tim-1 on CHO-Tim-1 transfectants …; assay: flow cytometry, cell surface staining of CHO transfectants

| Binder | binding result [1] | binding result [2] | binding result [3] | binding result [4] | binding result [5] |
| --- | --- | --- | --- | --- | --- |
| Tim-4-Ig (soluble Ig fusion polypeptide: extracellular IgV and mucin domains of Tim-4 fused to a human IgG1 Fc tail) (Fc fusion, Made by Chimerigen; also called tim-4:Ig fusion; not shown: human IgG1 Fc tail) FLGQPVTLPCHYLSWSQSRNSMCWGKGSCPNSKCNAELLRTDGTRIISRKSTKYTLLGKVQFGEVSLTISNTNRGDSGVYCCRIEVPGWFNDVKKNVRLELRRATTTKKPTTTTRPTTTPYVTTTTPELLPTTVMTTSVLPTTTPPQTLATTAFSTAVTTCPSTTPGSFSQETTKGSAITTESETLPASNHSQRSMMTISTDIAVLRPTGSNPGILPSTSQLTTQKTTLTTSESLQKTTKSHQINSRQTIL | no binding | no binding | no binding |  |  |
| Tim-1-Ig containing only the Tim-1 IgV domain (Fc fusion, also called Tim-1-Ig (IgV only); Tim-1-Ig fusion polypeptide (containing only the Tim-1 IgV domain); not shown: Ig Fc tail) SYVEVKGVVGHPVTLPCTYSTYRGITTTCWGRGQCPSSACQNTLIWTNGHRVTYQKSSRYNLKGHISEGDVSLTIENSVESDSGLYCCRVEIPGWFNDQKVTFSLQVKP |  |  |  | binds |  |

Results, then the binder that gave them:

| binding result [1] | binding result [2] | binding result [3] | binding result [4] | binding result [5] | Binder |
| --- | --- | --- | --- | --- | --- |
|  | no binding | no binding | binds | no binding | Tim-1-Ig, full-length (Tim-1 extracellular IgV and mucin domains fused to human IgG1 Fc tail) (Fc fusion, Only the extracellular IgV and mucin part stood in the assay; also called Tim1/Fc; full-length Tim-1-Ig; not shown: human IgG1 Fc tail) YVEVKGVVGHPVTLPCTYSTYRGITTTCWGRGQCPSSACQNTLIWTNGHRVTYQKSSRYNLKGHISEGDVSLTIENSVESDSGLYCCRVEIPGWFNDQKVTFSLQVKPEIPTRPPTRPTTTRPTATGRPTTISTRSTHVPTSIRVSTSTPPTSTHTWTHKPEPTTFCPHETTAEVTGIPSHTPTDWNGTVTSSGDTWSNHTEAIPPGKPQKNPTKG |
| no binding | no binding | no binding |  | no binding | Tim-2-Ig (Tim-2 extracellular IgV and mucin domains fused to human IgG1 Fc tail) (Fc fusion, Only the extracellular IgV and mucin part stood in the assay; also called Tim2/Fc; not shown: human IgG1 Fc tail) HTAVQGLAGHPVTLPCIYSTHLGGIVPMCWGLGECRHSYCIRSLIWTNGYTVTHQRNSRYQLKGNISEGNVSLTIENTVVGDGGPYCCVVEIPGAFHFVDYMLEVKPEISTSPPTRPTATGRPTTISTRSTHVPTSTRVSTSTSPTPAHTETYKPEATTFYPDQTTAEVTETLPDTPADWHNTVTSSDDPWDDNTEVIPPQKPQKNLNKG |
